Experiment [1] concerns the target PII(S49E), phosphomimetic variant, His8-tagged (Synechocystis sp. PCC 6803) (UniProt Q55247). Put plainly: BLI; Octet K2; His8-tagged PII variant loaded (10 ug/ml) on Ni-NTA sensor tips, free sites blocked with 72 ug/ml PII(ΔT); analyte GST-PirA 125 to 12,000 nM (or tag-free PirA or GST alone); with ADP (0.1 to 2 mM; 2 mM for variants and controls); 30°C; 50 mM Tris-HCl pH 7.4, 150 mM KCl, 2 mM MgCl2, 0.02% lauryldimethylamine oxide, 0.2 mg/ml BSA; KD from concentration versus maximum response.

In experiment [2] the target is His8-tagged PII protein, PII(WT) (Synechocystis sp. PCC 6803) (UniProt Q55247). The description is as above.
Experiment [3] has the same target.

pKd: −log10 of the molar value.

One may read the pKd as −log10 of the Kd, conventionally taken in molar units. Read a low pKd as a large Kd. For “GST-tagged PirA (Ssr0692, PII-interacting regulator of arginine synthesis) (natural protein)”, the results for the pKd in experiment [1] and in experiment [2] were 5.60 and 5.54, respectively. The substance further gave an NAGK activity (AGPR-coupled assay; 6 ug NAGK, 2.4 ug PII, 0.1 mM arginine, 1 mM ATP, 1 mM ADP) against PirA from 0 to 30 ug in experiment [3] of 50%.

Values taken from publication PMC8092223.
